T1: GmPOPB_S577A (Galerina marginata), H2E7Q8
T1 chain: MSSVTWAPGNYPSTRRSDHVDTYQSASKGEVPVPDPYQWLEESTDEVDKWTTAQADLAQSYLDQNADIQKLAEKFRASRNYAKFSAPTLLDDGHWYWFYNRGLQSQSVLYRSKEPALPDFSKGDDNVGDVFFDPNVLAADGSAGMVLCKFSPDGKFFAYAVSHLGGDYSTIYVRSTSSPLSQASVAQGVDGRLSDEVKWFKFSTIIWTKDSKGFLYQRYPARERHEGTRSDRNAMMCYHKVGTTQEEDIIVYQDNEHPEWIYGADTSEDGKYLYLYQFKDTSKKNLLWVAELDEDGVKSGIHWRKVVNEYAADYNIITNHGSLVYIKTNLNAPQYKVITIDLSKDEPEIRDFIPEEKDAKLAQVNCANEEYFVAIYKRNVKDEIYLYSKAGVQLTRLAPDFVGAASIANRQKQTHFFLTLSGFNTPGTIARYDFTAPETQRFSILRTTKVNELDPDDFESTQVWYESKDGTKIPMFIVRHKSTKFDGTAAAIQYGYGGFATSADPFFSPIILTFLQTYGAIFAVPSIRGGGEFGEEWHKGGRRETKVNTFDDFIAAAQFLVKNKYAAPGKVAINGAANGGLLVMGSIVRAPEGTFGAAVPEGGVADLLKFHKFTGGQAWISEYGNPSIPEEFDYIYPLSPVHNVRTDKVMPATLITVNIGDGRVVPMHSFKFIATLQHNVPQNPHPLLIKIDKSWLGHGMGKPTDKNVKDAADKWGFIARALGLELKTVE


Key:
[1] = target: T1, GmPOPB_S577A (Galerina marginata), …; experiment: ITC, peptide titrated into GmPOPB_S577A, 20 C
[2] = target: T1, GmPOPB_S577A (Galerina marginata), …; experiment: ITC
[3] = target: T1, GmPOPB_S577A (Galerina marginata), …; experiment: ITC, 20 C, single-site model

Binder | Kd [1] | further results
IWGIGCNPWTAEHV (modifications not checked) [14mer truncated substrate] | 9.5 µM | 
VDQTLASGNDIC (modifications not checked) | 5 µM | fold reduction of binding affinity against the 17mer recognition sequence [2]: 20 fold
IWGIGCNPWTAEH (modifications not checked) [13mer truncated substrate] | 2.4 µM | fold difference in affinity against the 35mer [2]: 20 fold; fold reduction in binding against the 35mer [2]: 10 fold
IWGIGCNPWT (modifications not checked) [10mer truncated substrate] | 83 µM | 
IWGIGCNPWTAE (modifications not checked) [12mer truncated substrate] | 21 µM | 
WTAEHVDQTLASGNDIC (modifications not checked) [recognition sequence (17mer) …] |  | Kd [3]: 0.43 µM
IWGIGCNPWTA (modifications not checked) [11mer truncated substrate] | 39 µM | 
TLASGNDIC (modifications not checked) | 121 µM | 

— patent publication US20200291444A1, “Macrocyclisation Tags” (Oxford University Innovation LTD, priority 2017, published 2020)
